# Reference: paper PMC3477848 (Biochemistry, 2012)
# Like-named read-outs stand apart in the source and are kept apart here.
# T1: Dpo4 (SsoDpo4, Y-family DNA polymerase) (Sulfolobus solfataricus, UniProt Q97W02 1-352)
# T1 sequence: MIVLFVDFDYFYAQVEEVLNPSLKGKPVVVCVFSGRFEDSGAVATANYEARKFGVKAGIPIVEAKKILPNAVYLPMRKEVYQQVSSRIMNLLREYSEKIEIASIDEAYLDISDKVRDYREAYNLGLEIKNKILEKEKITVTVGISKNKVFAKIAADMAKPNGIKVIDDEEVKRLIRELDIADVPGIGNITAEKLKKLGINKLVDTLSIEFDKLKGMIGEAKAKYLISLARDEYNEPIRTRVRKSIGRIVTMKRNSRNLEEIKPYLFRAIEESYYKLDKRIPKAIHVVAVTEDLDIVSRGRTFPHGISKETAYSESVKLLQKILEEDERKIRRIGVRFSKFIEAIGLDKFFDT
# T2: Dpo1 exo- (SsoDpo1, B-family DNA polymerase) (Sulfolobus solfataricus, UniProt P26811 1-882, D231A;D318A)
# T2 sequence: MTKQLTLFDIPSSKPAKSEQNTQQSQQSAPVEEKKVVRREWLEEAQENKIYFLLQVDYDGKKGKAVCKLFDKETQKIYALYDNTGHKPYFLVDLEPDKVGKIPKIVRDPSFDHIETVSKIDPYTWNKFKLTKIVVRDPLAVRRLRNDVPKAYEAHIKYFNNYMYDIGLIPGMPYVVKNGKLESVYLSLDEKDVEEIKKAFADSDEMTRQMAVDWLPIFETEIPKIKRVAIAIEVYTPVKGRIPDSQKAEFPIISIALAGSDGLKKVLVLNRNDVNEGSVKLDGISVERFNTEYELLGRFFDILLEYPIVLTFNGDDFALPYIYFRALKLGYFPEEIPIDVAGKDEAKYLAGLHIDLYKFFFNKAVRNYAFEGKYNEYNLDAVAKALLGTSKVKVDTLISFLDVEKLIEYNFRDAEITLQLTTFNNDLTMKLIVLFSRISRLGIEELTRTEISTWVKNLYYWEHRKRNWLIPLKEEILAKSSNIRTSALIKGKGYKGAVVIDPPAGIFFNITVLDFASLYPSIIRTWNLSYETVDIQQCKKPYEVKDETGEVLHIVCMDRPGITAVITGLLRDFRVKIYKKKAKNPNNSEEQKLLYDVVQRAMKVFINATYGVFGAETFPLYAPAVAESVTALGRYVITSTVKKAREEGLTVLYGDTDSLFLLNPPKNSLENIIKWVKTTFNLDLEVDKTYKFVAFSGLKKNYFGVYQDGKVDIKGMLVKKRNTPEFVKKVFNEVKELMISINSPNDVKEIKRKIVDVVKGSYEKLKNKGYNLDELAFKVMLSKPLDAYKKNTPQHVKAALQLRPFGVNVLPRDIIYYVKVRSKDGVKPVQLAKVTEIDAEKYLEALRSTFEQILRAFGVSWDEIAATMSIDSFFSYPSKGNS
# Key:
# Experiment in all cases: fluorescence anisotropy
# [1] = target: T1, Dpo4 (SsoDpo4, Y-family DNA polymerase)
# [2] = target: T2, Dpo1 exo- (SsoDpo1, B-family DNA …)
# [3] = target: T1, Dpo4 (SsoDpo4, Y-family DNA polymerase); remark: listed apart in the source
# [4] = target: T1, Dpo4 (SsoDpo4, Y-family DNA polymerase); remark: listed apart in the source
# [5] = target: T1, Dpo4 (SsoDpo4, Y-family DNA polymerase); remark: listed apart in the source
# [6] = target: T2, Dpo1 exo- (SsoDpo1, B-family DNA …); remark: listed apart in the source
# [7] = target: T1, Dpo4 (SsoDpo4, Y-family DNA polymerase); remark: listed apart in the source
# [8] = target: T2, Dpo1 exo- (SsoDpo1, B-family DNA …); remark: listed apart in the source
binder,measurement,setting,value
"TTTTTTTTTTCCCGGGCCGGCGTTTCGCCGGCCCGGG (structured_DNA) [37-nt hairpin primer-template, 5'-Cy3]",Kd,[1],329 ± 107 nM
same,Kd,[2],208 ± 57 nM
same,Kd,[3],133 ± 26 nM
same,Kd,[4],130 ± 4 nM
same,Kd,[5],140 ± 66 nM
same,Kd,[6],105 ± 3 nM
same,Kd,[7],435 ± 116 nM
same,Kd,[8],322 ± 23 nM
